In paper PMC8184782 (Nature Communications, 2021):

Biological target: the molecule itself
Experiment: non-reducing SDS-PAGE; MDFs treated with TSZ, lysed in DISC lysis buffer; loading dye without beta-mercaptoethanol, immunoblot for MLKL; intermolecular disulfide bonds stabilise the trimer

B1: mixed lineage kinase domain-like (MLKL) pseudokinase, mouse, wild type, endogenous (natural protein, mouse (endogenous in MDFs), UniProt Q9D2Y4-2 1-464, looked up)
chain: MDKLGQIIKLGQLIYEQCEKMKYCRKQCQRLGNRVHGLLQPLQRLQAQGKKNLPDDITAALGRFDEVLKEANQQIEKFSKKSHIWKFVSVGNDKILFHEVNEKLRDVWEELLLLLQVYHWNTVSDVSQPASWQQEDRQDAEEDGNENMKVILMQLQISVEEINKTLKQCSLKPTQEIPQDLQIKEIPKEHLGPPWTKLKTSKMSTIYRGEYHRSPVTIKVFNNPQAESVGIVRFTFNDEIKTMKKFDSPNILRIFGICIDQTVKPPEFSIVMEYCELGTLRELLDREKDLTMSVRSLLVLRAARGLYRLHHSETLHRNISSSSFLVAGGYQVKLAGFELSKTQNSISRTAKSTKAERSSSTIYVSPERLKNPFCLYDIKAEIYSFGIVLWEIATGKIPFEGCDSKKIRELVAEDKKQEPVGQDCPELLREIINECRAHEPSQRPSVDGILERLSAVEESTDKKV
modifications: after TSZ: phosphorylated at S345; K63-linked ubiquitin chains, Ub acceptor lysines K51, K77, K172 and K219
notes: MLKL, mouse, endogenous in MDFs; Oligomers are seen only in cells treated with TNF/SM-164/z-VAD-FMK (TSZ); also called mMLKL; MLKL^WT; source: endogenous, mouse dermal fibroblasts (MDFs), in lysate or digitonin membrane fraction, after TSZ treatment
- stoichiometry N: 3
